In patent publication US20240067728A1 (BIO THERA SOLUTIONS, published 2024):
Substitutions are numbered along the chain they refer to. Numbers in names are those of the source. Where two headings read alike, the source gives them in different places.

B1: 47-R2-6 (antibody, human IgG1, kappa, V domains shown)
VH: QVQLQESGPGLVKPSETLSLTCTVSGGSLDNYYWSWIRQPPGKGLEWIGYIYYSGNTNYNPSLKSRVTISVDTSKNQFSLKLSSVTAADTAVYYCARGGRFLERYWGQGTLVTVSS
VL: EIVLTQSPSSVSASVGDKLTMTCQASQDIGKHLNWYQQKPGKPPKLLIYGASNLKTGVPSRFSGTGSGTDFTLTISSLQPEDFATYYCQQSYTTPYTFGQGTRLEIKR
notes: Anti-CD47 monoclonal antibody, L12-6-VH with light chain R2-6
B2: 47-R2-18 (antibody, human IgG1, kappa, V domains shown)
VH: B1 VH
VL: EIVLTQSPSSVSASVGDRITITCRASQGIGSWLAWYQQKPGKAPSLLIYAASSLQSGVPSRFSGSGSGTDFTLTISSLQTEDVAVYYCQQYFSTPYTFGQGTKVDIKR
notes: Anti-CD47 monoclonal antibody, L12-6-VH with light chain R2-18
B3: L1-R2-4-47 (antibody, human IgG1, kappa, V domains shown)
VH: EVQLVESGGGLVQPGGSLRLSCAASGFTFSDSWIHWVRQAPGKGLEWVGWISPYGGSTYYADHLSQRFTISADTSKNTAYLQMNSLRAEDTAVYYCARRHWPGGFDYWGQGTLVTVSS
VL: EIVLTQSPSSLSASVGDRVTITCLASQTIGTWLAWYQQKPGKSPQLLIYAASTLQSGVPSRFSGSGSGTDFTLTISSLQPEDVATYYCQQYYSTPRTFGQGTKVEIKR
B4: 47-R2-89 (antibody, human IgG1, kappa, V domains shown)
VH: B1 VH
VL: B3 VL with E1D, V3Q, L4M, T53S, R96Y, E105D
notes: Anti-CD47 monoclonal antibody, L12-6-VH with light chain R2-89
B5: 47-R2-78 (antibody, human IgG1, kappa, V domains shown)
VH: B1 VH
VL: DIQMTQSPSSFSASTGDRVTITCRASQGISSYLAWYQQKPGKAPKLLIYAASRLQSGVPSRFSGSGSGTDFTLTISSLQAEDVAVYYCQQYYSTPYTFGQGTKVDIKR
notes: Anti-CD47 monoclonal antibody, L12-6-VH with light chain R2-78
B6: 47-R2-4 (antibody, human IgG1, kappa, V domains shown)
VH: B1 VH
VL: B3 VL
notes: Anti-CD47 monoclonal antibody, L12-6-VH with light chain R2-4; also called parental anti-CD47 antibody 47-R2-4
B7: L1-R2-4-71 (antibody, human IgG1, kappa, V domains shown)
VH: B3 VH with H63S, L64Y, S65R, Q66S
VL: B3 VL
notes: also called parental anti-PD-L1 antibody L1-R2-4-71
B8: 47-R2-85 (antibody, human IgG1, kappa, V domains shown)
VH: B1 VH
VL: B2 VL with E1D, V3Q, L4M, V11L, I19V, T22P, S31K, W32F
notes: Anti-CD47 monoclonal antibody, L12-6-VH with light chain R2-85
B9: BsAb-71 (bispecific antibody, human IgG1, kappa)
heavy 1: not shown
heavy 2: not shown
light: EIVLTQSPSSLSASVGDRVTITCLASQTIGTWLAWYQQKPGKSPQLLIYAASTLQSGVPSRFSGSGSGTDFTLTISSLQPEDVATYYCQQYYSTPRTFGQGTKVEIKRTVAAPSVFIFPPSDEQLKSGTASVVCLLNNFYPREAKVQWKVDNALQSGNSQESVTEQDSKDSTYSLSSTLTLSKADYEKHKVYACEVTHQGLSSPVTKSFNRGEC
notes: Knob-into-hole IgG1-like bispecific with common light chain; first heavy chain is the anti-PD-L1 arm, second the anti-CD47 arm; also called anti-PD-L1/CD47 bispecific antibody BsAb-71
B10: BsAb-46 (bispecific antibody, human IgG1, kappa)
heavy 1: not shown
heavy 2: not shown
light: B9 light
notes: Knob-into-hole IgG1-like bispecific with common light chain; first heavy chain is the anti-PD-L1 arm, second the anti-CD47 arm; also called anti-PD-L1/CD47 bispecific antibody BsAb-46
B11: BsAb-71-N297A (bispecific antibody, human IgG1, kappa, N297A)
heavy 1: EVQLVESGGGLVQPGGSLRLSCAASGFTFSDSWIHWVRQAPGKGLEWVGWISPYGGSTYYADSYRSRFTISADTSKNTAYLQMNSLRAEDTAVYYCARRHWPGGFDYWGQGTLVTVSSASTKGPSVFPLAPSSKSTSGGTAALGCLVKDYFPEPVTVSWNSGALTSGVHTFPAVLQSSGLYSLSSVVTVPSSSLGTQTYICNVNHKPSNTKVDKKVEPKSCDKTHTCPPCPAPELLGGPSVFLFPPKPKDTLMISRTPEVTCVVVDVSHEDPEVKFNWYVDGVEVHNAKTKPREEQYASTYRVVSVLTVLHQDWLNGKEYKCKVSNKALPAPIEKTISKAKGQPREPQVYTLPPCRDELTKNQVSLWCLVKGFYPSDIAVEWESNGQPENNYKTTPPVLDSDGSFFLYSKLTVDKSRWQQGNVFSCSVMHEALHNHYTQKSLSLSPGK
heavy 2: not shown
light: B9 light
notes: BsAb-71 with the N297A mutation in the Fc region; also called anti-PD-L1/CD47 bispecific antibody BsAb-71-N297A
B12: BsAb-47 (bispecific antibody, human IgG1, kappa)
heavy 1: not shown
heavy 2: not shown
light: B9 light
notes: Knob-into-hole IgG1-like bispecific with common light chain; first heavy chain is the anti-PD-L1 arm, second the anti-CD47 arm; also called anti-PD-L1/CD47 bispecific antibody BsAb-47
B13: BsAb-36 (bispecific antibody, human IgG1, kappa)
heavy 1: not shown
heavy 2: not shown
light: B9 light
notes: Knob-into-hole IgG1-like bispecific with common light chain; first heavy chain is the anti-PD-L1 arm, second the anti-CD47 arm; also called anti-PD-L1/CD47 bispecific antibody BsAb-36

Key:
[1] = target: T1, CD47-His antigen (human, UniProt Q08722 19-139); assay: SPR (Biacore), method of Example 5, 1:1 Binding fit
T1 construct: Human CD47 ECD with C-terminal 8xHIS tag, expressed in HEK293F; also called hCD47-His; human CD47-His

[2] = target: T1, CD47-His antigen; assay: SPR (Biacore), method of Example 5; cell carries an unexplained mark ^
[3] = target: T2, human PD-L1 on PD-L1-CHO cells (human, UniProt Q9NZQ7 19-290); assay: FACS on PD-L1-CHO cells, PE-labeled anti-human Fc secondary antibody; MFI(Mean) against Con(nM)
T2 construct: whole, on cells; also called CHO cells overexpressing human PD-L1; PD-L1 expressed on the cell surface

[4] = target: T3, PD-L1-His antigen (human, UniProt Q9NZQ7 19-238); assay: SPR (Biacore T200), PD-L1-His immobilised on chip, antibody as mobile phase, 1:1 Binding fit
T3 construct: Human PD-L1 ECD with C-terminal 8xHIS tag, expressed in HEK293F; also called hPDL1-His; human PD-L1-His

[5] = target: T4, PD-L1 on CHO-PD-L1 cells (Promega PD-1/PD-L1 Blockade Bioassay) (UniProt Q9NZQ7 19-290, limits assumed); assay: cell-based or functional assay
[6] = target: T5, CD47 on human T lymphocyte leukemia Jurkat cells (human, UniProt Q08722 19-323); assay: FACS on Jurkat cells, PE-labeled anti-human Fc secondary antibody; MFI(Mean) against Con(nM)
T5 construct: whole, on cells; also called tumor cells

[7] = target: T6, human CD47 on CD47-CHO cells (human, UniProt Q08722 19-323); assay: FACS on CD47-CHO cells, PE-labeled anti-human Fc secondary antibody; MFI(Mean) against Con(nM)
T6 construct: whole, on cells; also called CHO cells overexpressing human CD47; CD47 expressed on the cell surface

[8] = target: T7, CD47 on human red blood cells (human, UniProt Q08722 19-323); assay: FACS on human red blood cells, PE-labeled anti-human Fc secondary antibody; MFI(Mean) against Con(nM)
T7 construct: whole, on cells; also called RBC

[9] = target: T6, human CD47 on CD47-CHO cells; assay: FACS on CD47-CHO cells, PE-labeled anti-human Fc secondary antibody; MFI(Mean) against Con(nM); remark: listed apart in the source
[10] = target: T4, PD-L1 on CHO-PD-L1 cells (Promega …); assay: cell-based or functional assay; remark: listed apart in the source
[11] = target: T2, human PD-L1 on PD-L1-CHO cells; assay: FACS on PD-L1-CHO cells, PE-labeled anti-human Fc secondary antibody; MFI(Mean) against Con(nM); remark: listed apart in the source
[12] = target: T4, PD-L1 on CHO-PD-L1 cells (Promega …); assay: cell-based or functional assay; remark: listed apart in the source
[13] = target: T1, CD47-His antigen; assay: SPR (Biacore), method of Example 5, 1:1 Binding fit; remark: listed apart in the source
[14] = target: T3, PD-L1-His antigen; assay: as above
[15] = target: T1, CD47-His antigen; assay: SPR (Biacore), method of Example 5, Two State Reaction fit

T4 sequence (Q9NZQ7 19-290 limits assumed): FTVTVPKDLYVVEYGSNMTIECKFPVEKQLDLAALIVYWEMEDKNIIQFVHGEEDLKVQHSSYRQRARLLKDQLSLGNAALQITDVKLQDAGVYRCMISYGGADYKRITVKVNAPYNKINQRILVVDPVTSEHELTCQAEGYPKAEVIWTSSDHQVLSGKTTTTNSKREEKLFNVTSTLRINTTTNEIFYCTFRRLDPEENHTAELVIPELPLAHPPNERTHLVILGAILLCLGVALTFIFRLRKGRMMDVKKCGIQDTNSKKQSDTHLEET
T2 sequence (Q9NZQ7 19-290): as the sequence (Q9NZQ7 19-290 limits assumed) above
T3 sequence (Q9NZQ7 other isoform, or with tags, fused parts or gaps limits assumed): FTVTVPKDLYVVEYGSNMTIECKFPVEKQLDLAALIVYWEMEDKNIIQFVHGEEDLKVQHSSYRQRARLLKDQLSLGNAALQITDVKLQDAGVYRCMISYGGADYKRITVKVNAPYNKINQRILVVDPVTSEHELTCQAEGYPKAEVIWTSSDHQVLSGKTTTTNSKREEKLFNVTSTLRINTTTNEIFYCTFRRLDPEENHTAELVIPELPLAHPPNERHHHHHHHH

Row | Binder | Kd [1] | EC50 (read off the curve) [3] | EC50 (luciferase reporter, PD-1/PD-L1 blockade MOA assay; blocked partner: PD-1 on Jurkat-PD1 cells) [10] | Kd [13] | Kd [14] | Kd [15] | other results
1 | B1 | 1.11 nM |  |  |  |  |  | 
2 | B2 |  |  |  |  |  |  | Kd [2]: 0.312 nM
3 | B3 |  | ~0.6 nM |  |  |  |  | Kd [4]: 0.29 nM; EC50 (luciferase reporter, PD-1/PD-L1 blockade MOA assay; blocked partner: PD-1 on Jurkat-PD1 cells) [5]: 0.389 µg/mL; EC50 (read off the curve) [5]: ~2 µg/mL
4 | B4 |  |  |  |  |  |  | Kd [2]: 0.361 nM
5 | B5 | 655 nM |  |  |  |  |  | 
6 | B6 | 3.29 nM |  |  |  |  |  | binding result [3]: no binding (tested: 10 nM); EC50 (read off the curve) [6]: ~0.7 nM; EC50 (read off the curve) [7]: ~1 nM; EC50 (read off the curve) [8]: ~3 nM; EC50 (read off the curve) [9]: ~0.9 nM
7 | B7 |  | ~0.6 nM | 0.292 µg/mL |  |  |  | Kd [4]: 0.282 nM; EC50 (luciferase reporter, PD-1/PD-L1 blockade MOA assay; blocked partner: PD-1 on Jurkat-PD1 cells) [5]: 0.382 µg/mL; EC50 (read off the curve) [5]: ~2 µg/mL; EC50 (read off the curve) [11]: ~0.2 nM; EC50 (luciferase reporter, PD-1/PD-L1 blockade MOA assay; blocked partner: PD-1 on Jurkat-PD1 cells) [12]: 0.087 µg/mL
8 | B8 | 275 nM |  |  |  |  |  | 
9 | B9 |  |  | 0.285 µg/mL | 27.8 nM | 0.174 nM | 3.78 nM | 
10 | B10 |  | ~0.8 nM | 0.143 µg/mL | 29.1 nM | 0.371 nM | 3.95 nM | 
11 | B11 |  |  |  |  |  |  | EC50 (read off the curve) [11]: ~0.5 nM; EC50 (luciferase reporter, PD-1/PD-L1 blockade MOA assay; blocked partner: PD-1 on Jurkat-PD1 cells) [12]: 0.164 µg/mL
12 | B12 |  | ~0.8 nM | 0.295 µg/mL | 28.4 nM | 0.223 nM | 4.77 nM | EC50 (read off the curve) [7]: ~4 nM
13 | B13 |  | ~0.7 nM | 0.208 µg/mL | 28 nM | 0.352 nM | 4.49 nM | 
